Read-outs that look alike come from different tables or passages of the source. Where no end group is shown, it is not given here.
Assays:
[1] = test system: rat primary hippocampal neurons; assay: Binding to rat primary hippocampal neurons (immunofluorescence); assay type: cell-based; conditions: 200 nM, 37° C., 15 minutes, detection with 6E10 and Cy3 second antibody
Procedure: The binding of rat Aβ(1-42) oligomers B of example 5b to rat primary hippocampal neurons was studied. The hippocampal neurons were cultured in neurobasal medium with B27 supplement on poly-L-lysine-coated cover slips and used on day 14 of the culture. The oligomers were bound to the cell membrane of the neurons by adding 200 nM (total monomeric Aβ concentration) oligomers to fresh culture medium and incubating at 37° C. for 15 minutes. After removing the Aβ-containing medium, two washing steps with medium were carried out and the cells were then fixed in 3.7% formaldehyde. After further washing of the cells, unspecific binding sites were blocked with 10% normal donkey serum in PBS buffer at room temperature for 90 min. 6E10 (from mouse) was applied as the first antibody in a 1:2000 dilution at room temperature for 2 h. The cells were washed again and incubated with the second antibody (from donkey) which is directed against mouse and which is coupled to the fluorescent dye Cy3, at room temperature for 2 h. After the cells had been washed again, the cover slips containing the neurons were fixed to a slide with embedding medium. The hippocampal neurons with bound Aβ oligomers were depicted in a fluorescent microscope. The control used was a mixture in which the first antibody 6E10 had been omitted.

[2] = rat
[3] = Stability of Aβ(1-42) oligomers B in physiological buffers (SDS PAGE); assay type: physicochemical
Procedure: The Aβ(1-42) oligomers B obtained according to example 6b are tested for stability in PBS buffer under the following conditions.
5 mg/ml are diluted with PBS in 2× dilution steps down to 0.08 mg/ml. All solutions obtained are incubated at room temperature for 24 hours. This was followed by analyzing the band pattern in an SDS PAGE in comparison with a frozen control preparation.
The Aβ(1-42) oligomers B obtained according to example 6b are diluted to 0.5 mg/ml with PBS buffer and incubated at room temperature or at 37° C. for 24 h or 96 h.
Subsequently, the band pattern was analyzed in an SDS PAGE.

murine cortical neurons = assay: Neurotoxic action on murine cortical neurons (LDH release); assay type: cell-based; conditions: 24 h, various final concentrations, n=12
Procedure: Murine cortical neurons are prepared and cultured as a mixed culture with glia cells following the literature (Choi et al. (1987) J. Neurosci. 7, 357-368). The cortices of embryos on days 14-15 of development are mechanically removed from the meninges and lower brain regions. The cells are separated from one another by incubation in a 0.05% strength trypsin solution at 37° C. for 5-7 minutes and subsequently pipetting said solution several times through a pasteur pipette with reduced opening. After determining the number of cells, 430 000 cells are seeded in 0.5 ml of maintenance medium (minimum essential medium containing 0.8 mM glutamine, 18 mM glucose, 23 mM NaHCO3 and 10% of horse serum) per 2 cm^2 on cell culture material coated with poly-L-ornithine and laminine. Cultivation and later incubations of the cells are carried out in a humidified cell culture incubator at 37° C., 5% CO2. […] The cell culture supernatants are removed after 24 h, the remaining cells are destroyed by incubation in distilled water for 20 minutes and the activity of the enzyme lactate dehydrogenase (LDH) is determined enzymatically in both solutions. For evaluation, the ratio of the LDH activity of the cell culture supernatants to the sum of the LDH activities of supernatant and remaining cells is determined and the average of the quadruple determinations is formed. […]

[4] = rat, in vivo; for Aβ(1-42) detected in brain extract: 10 nmol
[5] = Detection of Aβ(1-42) oligomers B in rat brain homogenates after icv administration; conditions: Western blot, after 2 hours

Row | Substance | binding to the cell surface of the neurons [1] | biological half life in the plasma [2] [hours] | band pattern in SDS PAGE ([3]; 0.5 mg/ml in PBS, room temperature or 37° C., 24 h or 96 h) | band pattern in SDS PAGE versus frozen control ([3]; PBS, 5 mg/ml down to 0.08 mg/ml, room temperature, 24 hours) | neurotoxicity (neuronal death, LDH) (murine cortical neurons) | average biological half life (brain) [4] | Aβ(1-42) detected in brain extract ([4]; 0.25 h) | Aβ(1-42) detected in brain extract ([4]; 2 h) | oligomeric structure after in vivo administration (38/48 kDa bands) [5]
1 | rat Aβ(1-42) oligomers B: oligomers of rat amyloid β(1-42) protein with molecular weights of 38 kDa and 48 kDa (example 5b) (DAEFGHDSGFEVRHQKLVFFAEDVGSNKGAIIGLMVGGVVIA; also: oligomers of 38 kDa and 48 kDa) | bind to the cell surface of the neurons in a dotted manner | – | – | – | – | – | – | – | –
2 | Aβ(1-42) oligomers B: oligomers of human amyloid β(1-42) protein with molecular weights of 38 kDa and 48 kDa in SDS PAGE (examples 5a, 6b) | – | ≥ 8 | identical in all samples | identical in all samples | distinct toxic action | about 105 min | about 0.4 nmol/g | approx. 0.2 nmol/g | oligomeric structure is still retained

Source: patent US10464976B2, “Amyloid β(1-42) oligomers, derivatives thereof and antibodies thereto, methods of preparation thereof and use thereof” (AbbVie Deutschland GmbH & Co. KG, priority 2003, dated 2019)
